From patent publication US20250207107A1, “LUCIFERASE MUTANT AND USE THEREOF” (DGI TECH (QING DAO) CO., LIMITED, priority 2022, published 2025)

B1: pCold WT-NS Pxluc: wild type Pleuromamma xiphia luciferase without a signal peptide, SEQ ID NO: 4, prokaryotic expression (protein)
chain: QPTENKQESHIVDSDLDGDRGRKLPGKKLPIEVLKIMEANARRAGCTRGCLICLSKIKCTAKMKRYIPGRCHTYEGDKSIGQGGIGGPIVDIPEIIGFKNMEPMDQFIAQVDLCADCTTGCLKGLANVRCNDLLKKWLPDRCAGFADKIQNEVDSIKGMAGDR
modifications: WT-NS Pxluc
B2: P25-1: Pxluc mutant without signal peptide, G98L, Q99R (SEQ ID NO: 2 numbering) (protein)
chain: MYIKVWFGLACLSLVLAQPTENKQESHIVDSDLDGDRGRKLPGKKLPIEVLKIMEANARRAGCTRGCLICLSKIKCTAKMKRYIPGRCHTYEGDKSILRGGIGGPIVDIPEIIGFKNMEPMDQFIAQVDLCADCTTGCLKGLANVRCNDLLKKWLPDRCAGFADKIQNEVDSIKGMAGDR
modifications: signal peptide removed; (WT Pxluc)
B3: Pxluc WT: wild-type luciferase for eukaryotic expression, with signal peptide, 6×His tag and Avitag (SEQ ID NO: 28) (protein)
chain: MYIKVWFGLACLSLVLAHHHHHHGSQPTENKQESHIVDSDLDGDRGRKLPGKKLPIEVLKIMEANARRAGCTRGCLICLSKIKCTAKMKRYIPGRCHTYEGDKSIGQGGIGGPIVDIPEIIGFKNMEPMDQFIAQVDLCADCTTGCLKGLANVRCNDLLKKWLPDRCAGFADKIQNEVDSIKGMAGDRGSGLNDI
modifications: misc_feature 1..585 pEE12.4

What was measured:
Assay type in all cases: biochemical
[1] = Substrate specificity assay of purified luciferase, ZS2/F-CTZ luminescence ratio; details: for ZS2 luminescence intensity to F-CTZ luminescence intensity: purified prokaryotically expressed luciferase 1 μg/ml, substrates 100 μM, microplate reader
Method: (§1) Protein concentration was accurately determined using the BCA quantification kit (Thermo Scientific™ Pierce™ BCA Protein Assay Kit), and luciferase was diluted to 1 μg/ml with diluent (50 mM Tris-HCl pH 8.0, 100 mM NaCl, 0.1% (v/v) Tween-20) and 10 μL was added to black 96-well plates, which was then added with 90 μL of the respective substrates, coelenterazine (purchased from Baiaolaibo), fluorinated coelenterazine, and coelenterazine derivatives ZS2 and ZS26 that were diluted to 100 μM with the same solution, and the luminescence intensity was read from the luminescence module with a microplate reader. The substrate specificity of the mutants was compared with the activity ratio of ZS2/F-CTZ and ZS26/F-CTZ. Table 10 below lists results of the mutation sites and substrate specificity of ZS26/F-CTZ and ZS2/F-CTZ of the dominant mutant of Pleuromamma xiphia luciferase.
(§2) pEE12.4 Pxluc WT and mutant pEE12.4 Pxluc P26-95, as well as the coupled products SA-Pxluc WT and SA-Pxluc P26-95 were subjected to the activity assay according to the method described in Example 5.

[2] = Substrate specificity assay of purified luciferase, ZS26/F-CTZ luminescence ratio; details: for ZS26 luminescence intensity to F-CTZ luminescence intensity: purified prokaryotically expressed luciferase 1 μg/ml, substrates 100 μM, microplate reader
Method: as §1, §2

[3] = Protein activity assay for Pleuromamma xiphia luciferase expressed in prokaryotic cells; details: protein expressed in OrigamiB (DE3) or BL21 (DE3), Gluc as control, FIG. 6
Method: The concentration of protein was accurately determined using a BCA quantification kit (Thermo Scientific™ Pierce™ BCA Protein Assay Kit), and the above purified luciferase was diluted with diluent (50 mM Tris-HCl pH 8.0, 100 mM NaCl, 0.1% (v/v) Tween-20). The protein expressed by the pET28a-Pxluc WT plasmid was diluted to 12 μg/ml, and the proteins expressed by the pCold WT Pxluc plasmid and pCold WT-NS Pxluc plasmid were diluted to […]. 10 μL of each protein was added to a black 96-well plate, which was then added with 90 µL of the respective substrates, coelenterazine (purchased from Baiaolaibo), fluorinated coelenterazine, and coelenterazine derivatives ZS2, ZS26 (the structural formula of each compound is shown in FIG. 5) that were diluted to 100 µM with the same solution, and the luminescence intensity was read from the luminescence module with a microplate reader. Gluc expressed in OrigamiB (DE3) competent cells was known to have good luminescence activity, and thus it was used as a control group. […] Therefore, the luminescence activity of Pleuromamma xiphia luciferase without a signal peptide to coelenterazine is similar to that of Gluc to coelenterazine. […] Subsequent experiments were performed with Pleuromamma xiphia luciferase without a signal peptide.

[4] = Activity assay of Pxluc expressed in eukaryotic cells; details: expressed in eukaryotic cells (Expi-CHO); FIG. 12
Method: as §1, §2

Molecule	ZS2 luminescence intensity to F-CTZ luminescence intensity [1]	substrate specificity for ZS2/F-CTZ ([1]; text summary of Table 10, FIG. 8)	ZS26 luminescence intensity to F-CTZ luminescence intensity [2]	substrate specificity for ZS26/F-CTZ ([2]; text summary of Table 10, FIG. 7)	luminescence value / luminescence activity to coelenterazine ([3]; listed as Pleuromamma xiphia luciferase without a signal peptide)	luminescence value / luminescence activity to coelenterazine ([3]; listed as pCold WT NS Pxluc)	activity of catalyzing the substrates ZS2, ZS26 [4]
B1	3.56	about 3.56 fold	1.77	about 1.77 fold	higher activity	highest luminescence value	–
B2	21.808	–	23.647	–	–	–	–
B3	–	–	–	–	–	–	had the activity of catalyzing the substrates
